# Molecular target: the molecule itself
# Assay: co-sedimentation; polymerization (sedimentation) assay: 12 μM SaFtsZ, 2 mM GTP, 50 mM MES pH 6.5, 5 mM Mg(CH3COO)2, 100 mM CH3CO2K, 10 min at 30 °C, ultracentrifuged at 350,000 x g for 10 min at 25 °C, pellet and supernatant on SDS-PAGE; with or without 50 μM C109
protein,measurement,value
"wild-type FtsZ of S. aureus (natural protein, Staphylococcus aureus ATCC 25923, UniProt P0A031 1-390, looked up, FtsZ, cell division protein, Staphylococcus aureus ATCC 25923; full-length ftsZ gene (1173 bp) amplified from genomic DNA; Cloned into pETSUMO by In-Fusion; also called SaFtsZ; full-length S. aureus FtsZ; source: E. coli BL21(DE3), purified (HisTrap HP nickel column, SUMO protease, Superdex-75 SEC)) MLEFEQGFNHLATLKVIGVGGGGNNAVNRMIDHGMNNVEFIAINTDGQALNLSKAESKIQIGEKLTRGLGAGANPEIGKKAAEESREQIEDAIQGADMVFVTSGMGGGTGTGAAPVVAKIAKEMGALTVGVVTRPFSFEGRKRQTQAAAGVEAMKAAVDTLIVIPNDRLLDIVDKSTPMMEAFKEADNVLRQGVQGISDLIAVSGEVNLDFADVKTIMSNQGSALMGIGVSSGENRAVEAAKKAISSPLLETSIVGAQGVLMNITGGESLSLFEAQEAADIVQDAADEDVNMIFGTVINPELQDEIVVTVIATGFDDKPTSHGRKSGSTGFGTSVNTSSNATSKDESFTSNSSNAQATDSVSERTHTTKEDDIPSFIRNREERRSRRTRR",binding result,binds

# Source: publication PMC8308607, “Antistaphylococcal Activity of the FtsZ Inhibitor C109” (Pathogens, 2021)
